Measured values from the supplement of paper PMC5998384.

How the values were obtained:
HeLa Kyoto [1] = experiment: melting temperature (median over replicates), in situ; higher = more thermally stable
HeLa Kyoto [2] = experiment: solubility in G1/S (NP-40 vs SDS abundance) (log2 ratio); higher = more soluble; settings: cell cycle stage: G1/S
HeLa Kyoto [3] = experiment: solubility change mitosis vs G1/S (difference of NP-40 vs SDS log2 ratios) (log2 ratio difference); higher = more soluble in mitosis
HeLa Kyoto [4] = experiment: thermal stability score vs G1/S (z-score of summed log2 fold changes over temperatures); higher = more thermally stable than in G1/S
[5] = cell cycle stage: early G1 (4.5 h after nocodazole release)
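For melting temperature (median over replicates), in situ in this document: HeLa Kyoto cells synchronized by double thymidine or nocodazole block, proteins quantified by TMT10plex mass spectrometry, three independent biological replicates.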
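For solubility change mitosis vs G1/S (difference of NP-40 vs SDS log2 ratios) in this document: synchronized HeLa Kyoto cells (double thymidine block for G1/S, nocodazole release for mitosis), protein amounts in NP-40 versus SDS lysates quantified by mass spectrometry, three biological replicates.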
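For solubility in G1/S (NP-40 vs SDS abundance) in this document: HeLa Kyoto cells arrested at G1/S by double thymidine block, proteins quantified by TMT10plex mass spectrometry in mild NP-40 versus SDS extracts, three biological replicates.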
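For thermal stability score vs G1/S (z-score of summed log2 fold changes over temperatures) in this document: synchronized HeLa Kyoto cells, proteins quantified by TMT10plex mass spectrometry, three biological replicates, mitosis taken 0.5 h after nocodazole release, G1/S directly after double thymidine block.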

Row | Substance | melting temperature (HeLa Kyoto [1]; cell cycle stage: G1/S) | melting temperature (HeLa Kyoto [1]; cell cycle stage: mitosis) | solubility in G1/S (log2) (HeLa Kyoto [2]) | solubility change mitosis (log2) (HeLa Kyoto [3]) | thermal stability score (HeLa Kyoto [4]; [5]) | thermal stability score (HeLa Kyoto [4]; cell cycle stage: mitosis)
1 | MTTYSDKGAKPERGRFLHFHSVTFWVGNAKQATSFYCSKMGFEPLAYRGLETGSREVVSHVIKQGKIVFVLSSALNPWNKEMGDHLVKHGDGVKDIAFEVEDCDYIVQKARERGAKIMREPWVEQDKFGKVKFAVLQTYGDTTHTLVEKMNYIGQFLPGYEAPAFMDPLLPKLPKCSLEMIDHIVGNQPDQEMVSASEWYLKNLQFHRFWSVDDTQVHTEYSSLRSIVVANYEESIKMPINEPAPGKKKSQIQEYVDYNGGAGVQHIALKTEDIITAIRHLRERGLEFLSVPSTYYKQLREKLKTAKIKVKENIDALEELKILVDYDEKGYLLQIFTKPVQDRPTLFLEVIQRHNHQGFGAGNFNSLFKAFEEEQNLRGNLTNMETNGVVPGM [HPD] | 53.6 °C | 53.5 °C | 0.143 | -0.0296 | 1.14 | 1.46
2 | MTVARPSVPAALPLLGELPRLLLLVLLCLPAVWGDCGLPPDVPNAQPALEGRTSFPEDTVITYKCEESFVKIPGEKDSVICLKGSQWSDIEEFCNRSCEVPTRLNSASLKQPYITQNYFPVGTVVEYECRPGYRREPSLSPKLTCLQNLKWSTAVEFCKKKSCPNPGEIRNGQIDVPGGILFGATISFSCNTGYKLFGSTSSFCLISGSSVQWSDPLPECREIYCPAPPQIDNGIIQGERDHYGYRQSVTYACNKGFTMIGEHSIYCTVNNDEGEWSGPPPECRGKSLTSKVPPTVQKPTTVNVPTTEVSPTSQKTTTKTTTPNAQATRSTPVSRTTKHFHETTPNKGSGTTSGTTRLLSGHTCFTLTGLLGTLVTMGLLT [CD55] | 63.5 °C | 63.9 °C | -0.786 | -0.0285 | -1.88 | -1.77
3 | MUC16 | 53.5 °C | 53.5 °C | -0.172 | -0.177 | -2.6 | -5.24
4 | MVAPGSVTSRLGSVFPFLLVLVDLQYEGAECGVNADVEKHLELGKKLLAAGQLADALSQFHAAVDGDPDNYIAYYRRATVFLAMGKSKAALPDLTKVIQLKMDFTAARLQRGHLLLKQGKLDEAEDDFKKVLKSNPSENEEKEAQSQLIKSDEMQRLRSQALNAFGSGDYTAAIAFLDKILEVCVWDAELRELRAECFIKEGEPRKAISDLKAASKLKNDNTEAFYKISTLYYQLGDHELSLSEVRECLKLDQDHKRCFAHYKQVKKLNKLIESAEELIRDGRYTDATSKYESVMKTEPSIAEYTVRSKERICHCFSKDEKPVEAIRVCSEVLQMEPDNVNALKDRAEAYLIEEMYDEAIQDYETAQEHNENDQQIREGLEKAQRLLKQSQKRDYYKILGVKRNAKKQEIIKAYRKLALQWHPDNFQNEEEKKKAEKKFIDIAAAKEVLSDPEMRKKFDDGEDPLDAESQQGGGGNPFHRSWNSWQGFNPFSSGGPFRFKFHFN [DNAJC3] | 53.3 °C | 54.4 °C | 0.202 | -0.0724 | 5 | 3.84
5 | MVAPVLETSHVFCCPNRVRGVLNWSSGPRGLLAFGTSCSVVLYDPLKRVVVTNLNGHTARVNCIQWICKQDGSPSTELVSGGSDNQVIHWEIEDNQLLKAVHLQGHEGPVYAVHAVYQRRTSDPALCTLIVSAAADSAVRLWSKKGPEVMCLQTLNFGNGFALALCLSFLPNTDVPILACGNDDCRIHIFAQQNDQFQKVLSLCGHEDWIRGVEWAAFGRDLFLASCSQDCLIRIWKLYIKSTSLETQDDDNIRLKENTFTIENESVKIAFAVTLETVLAGHENWVNAVHWQPVFYKDGVLQQPVRLLSASMDKTMILWAPDEESGVWLEQVRVGEVGGNTLGFYDCQFNEDGSMIIAHAFHGALHLWKQNTVNPREWTPEIVISGHFDGVQDLVWDPEGEFIITVGTDQTTRLFAPWKRKDQSQVTWHEIARPQIHGYDLKCLAMINRFQFVSGADEKVLRVFSAPRNFVENFCAITGQSLNHVLCNQDSDLPEGATVPALGLSNKAVFQGDIASQPSDEEELLTSTGFEYQQVAFQPSILTEPPTEDHLLQNTLWPEVQKLYGHGYEIFCVTCNSSKTLLASACKAAKKEHAAIILWNTTSWKQVQNLVFHSLTVTQMAFSPNEKFLLAVSRDRTWSLWKKQDTISPEFEPVFSLFAFTNKITSVHSRIIWSCDWSPDSKYFFTGSRDKKVVVWGECDSTDDCIEHNIGPCSSVLDVGGAVTAVSVCPVLHPSQRYVVAVGLECGKICLYTWKKTDQVPEINDWTHCVETSQSQSHTLAIRKLCWKNCSGKTEQKEAEGAEWLHFASCGEDHTVKIHRVNKCAL [ELP2] | 51.7 °C | 51.4 °C | -0.174 | -0.181 | -0.251 | -1.61
6 | MVDKKLVVVFGGTGAQGGSVARTLLEDGTFKVRVVTRNPRKKAAKELRLQGAEVVQGDQDDQVIMELALNGAYATFIVTNYWESCSQEQEVKQGKLLADLARRLGLHYVVYSGLENIKKLTAGRLAAAHFDGKGEVEEYFRDIGVPMTSVRLPCYFENLLSHFLPQKAPDGKSYLLSLPTGDVPMDGMSVSDLGPVVLSLLKMPEKYVGQNIGLSTCRHTAEEYAALLTKHTRKVVHDAKMTPEDYEKLGFPGARDLANMFRFYALRPDRDIELTLRLNPKALTLDQWLEQHKGDFNLL [NMRAL1] | 48.9 °C | 49.3 °C | 0.417 | -0.127 | 4.25 | 3.59
